Measurements taken from the supplement of paper PMC9170038.

Test system: MS2 coat protein
Assay: apparent KD of MS2 coat protein; designed switch direction (-1 OFF switch, 1 ON switch): 1; higher = weaker reporter binding
Summary of the method: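 On Illumina chips, designed RNA switches with common flanks were made by stalled E. coli RNA polymerase. Titrations with SNAP-549-labelled MS2 coat protein, doubling from 0.7 or 1.5 nM to 3 µM, were done with no input, with 200 uM small-molecule ligand, or with an oligonucleotide input. Apparent KD is the median per design over clusters, from curve fits of normalised cluster fluorescence.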

[1] = input ligand: microRNA oligo, concentration not stated
[2] = Eterna round: R95, input ligand: FMN 200 uM
[3] = Eterna round: R95, input ligand: microRNA oligo, concentration not stated
[4] = Eterna round: R95, input ligand: none

Sequence | apparent KD of MS2 coat protein (input ligand: FMN 200 uM) | apparent KD of MS2 coat protein [1] | apparent KD of MS2 coat protein (input ligand: none) | apparent KD of MS2 coat protein [2] | apparent KD of MS2 coat protein [3] | apparent KD of MS2 coat protein [4]
UUAAUUAGUUGAGGAUAUUAUGUCGACUGAGACGACAUGAGGAUCACCCAUGUGAGAAGUGGUUUUAAGAAGGCAACAUUCAUA [JR_SSNG2_Sub088] (Eterna round: R96, puzzle: Same State NG 2) | 55.9 nM | 83 nM | 141 nM |  |  | 
UGGCUCAGACGAGGAUAUACGUGGUCACAUGAGGAUCACCCAUGUCUCGAGCUUCGGCUCGAGGCGUAGAAGGCGUCUGAGCCU [SSNG2/6-A3] (Eterna round: R96, puzzle: Same State NG 2) | 112 nM | 133 nM | 151 nM |  |  | 
CUCGAGAGGUUAUAGGAUAUCCAUUUACGUACAUGAGGAUCACCCAUGUCUGACCGCUGGGUCAGGGAGAAGGGUAAGAUCGAGA [Tegeoror] (puzzle: Same State 2) |  |  |  | 275 nM | 420 nM | 600 nM
CGGGUACAUGAGGAUCACCCAUGUUGGAGUAAUGCAGGAUAUGUGGGACGAGGUUAUAAAACAGAAGGGCAAGGAG [JR_SS!_Sub011] (puzzle: Same State 1) |  |  |  | 53.5 nM | 62.9 nM | 67.2 nM
AGUCCGGCCUGAGCUGGACUGAAGCAUGUACAUGAGGAUCACCCAUGUUCAUGUGCAGGCUUUUUGCUCGUCUUGUG [JL-shm-2.04 JL mod] (puzzle: Sensor for hsa-mir-208a) |  |  |  | 97.7 nM | 13.4 nM | 124 nM
CGUCCAGCCUGAGCUGGACAAAAGCAUGUACAUGAGGAUCACCCAUGUUCAUGUACAAGCUUUUUGCUCGUCUUAUA [salish99_208a_r3_046] (puzzle: Sensor for hsa-mir-208a) |  |  |  | 585 nM | 13.9 nM | 479 nM
AUAAGUUUGAUGCUCGUCUCUCCGUACAAACAUGAGGAUCACCCAUGUGGUCGGGAAGUAGCCCAGCCAGUAUGGCC [Anriquradi] (puzzle: Sensor for hsa-mir-208a) |  |  |  | 15.3 nM | 19.9 nM | 17.1 nM
UCUUGGUUUUUGCUCGUUUUUUGUGUUGAACAUGAGGAUCACCCAUGUAUUGUACGGUCCAAUUUAAUGAUGGUCCA [JMF 36] (puzzle: Sensor for hsa-mir-208a) |  |  |  | 30.8 nM | 17.8 nM | 32.4 nM
AUAUGAGGAGCAGGAUAUGCGAAGAAGAAAGAAGCAGAAGGGCUCAUGGGACGACAUGAGGAUCACCCAUGUACUUCGCGAUGA [AK SSNG1-V2-6] (Eterna round: R96, puzzle: Same State NG 1) | 133 nM | 278 nM | 538 nM |  |  | 
UGUACAUGAGGAUCACCCAUGUCUAGACAUGUUAAUAUAAUGUAGGAUAUAUAAAAUUUAAUUUAAUAGAAGGACAAUUUUUUU [JMF's solution 1] (Eterna round: R96, puzzle: Same State NG 3) | 278 nM | 218 nM | 297 nM |  |  | 
AGCCGAGACUGAGGAUAUAGAAAUCUACAUGAGGAUCACCCAUGUAGCAACACGUGGUAGUGAUUCUAGAAGGCGGCUCGGCGC [Omei SS(NG)2 Cv5] (Eterna round: R96, puzzle: Same State NG 2) | 13.4 nM | 41.1 nM | 40.6 nM |  |  | 
UUUAGUUGCGGGCAGGAUAUGUAUUAAAAUACAUGAGGAUCACCCAUGUGAGGCCGAAAAGGCCUACAGAAGGGCCAAACGCGAC [Laonerce - 23] (puzzle: Same State 2) |  |  |  | 14.4 nM | 84.5 nM | 117 nM
AUCCGGAGAAAACAAAUCCGACAUGAGGAUCACCCAUGUACACAGGAUAUCAGCCCGUUGAGGGCUGAGAAGGGUGGCCGAGUG [Cexeati] (Eterna round: R96, puzzle: Same State NG 3) | 267 nM | 72.7 nM | 130 nM |  |  | 
UAGAAACAUGAGGAUCACCCAUGUGUCAAAGACAUAGGAUAUCACGACUGGAGUCAAUCGUGAGAAGGGUGGUAAA [Usra] (puzzle: Same State 1) |  |  |  | 92.3 nM | 19.4 nM | 38.7 nM
GGAGCCGGCACCGAGGAUAUUCAUAUUAAAACAUGAGGAUCACCCAUGUGGGCCAGAAGGCCUUGGGAGAAGGCGGAUCGGCUCG [Xeonanis - 1] (Eterna round: R96, puzzle: Same State 2) | 18.6 nM | 141 nM | 314 nM |  |  | 
GGAGGACAUGAGGAUCACCCAUGUAGAUGGGCGCUAGGAUAUGCGAGAGGGUAGAGAGAAGCAGAAGGAGUGGAUU [JR_SS1_Sub041] (puzzle: Same State 1) |  |  |  | 156 nM | 259 nM | 214 nM

Sequence | apparent KD of MS2 coat protein (input ligand: FMN 200 uM) | apparent KD of MS2 coat protein [1] | apparent KD of MS2 coat protein (input ligand: none) | apparent KD of MS2 coat protein [2] | apparent KD of MS2 coat protein [3] | apparent KD of MS2 coat protein [4]
CUCUCACAUGAGGAUCACCCAUGUCCACCUCCGUGAGGAUAUAGAUAAUAAAUACAUUUACUAGAAGGCGCAUCCC [Bay] (puzzle: Same State 1) |  |  |  |  | 263 nM | 
AUACAUGAGGAUCACCCAUGUAAUUAAUUAAUUAAUAAGAUCUAGGAUAUCAGCUCGAAUAGAGCUGAGAAGGAGAUCACAUGU [SSNG3/21-B1] (Eterna round: R96, puzzle: Same State NG 3) |  | 19.4 nM |  |  |  | 
GAGUGGAGGAAAGGAUAUACAAUGAUAAUCACAGUAGAAGGUUCUAACAUGAGGAUCACCCAUGUAGGACUAUACCUGAGAGAA [Parity 47 - Jieux - Same State NG 1] (Eterna round: R96, puzzle: Same State NG 1) | 9.26 nM | 10.8 nM | 15.5 nM |  |  | 
UCUCGGGUCGUAGGAUAUGUAGGAUAUGUACAUGAGGAUCACCCAUGUCUACCAGAGACAGAAGGACAGAAGGACGAGCCACUC [pwkr ssNG2 2FMN 1F5s.5] (Eterna round: R96, puzzle: Same State NG 2) | 25.2 nM | 42.2 nM | 55.5 nM |  |  | 
UGGCUCAGACUAGGAUAUACGUGGUCACAUGAGGAUCACCCAUGUCUCGAGCUUCGGCUCGAGGCGUAGAAGGAGUCUGAGCCU [SSNG2/6-D3] (Eterna round: R96, puzzle: Same State NG 2) | 126 nM | 245 nM | 334 nM |  |  | 
CGGCGCUGUCGAGAGGAUAUGCGGUGAUGGACAUGAGGAUCACCCAUGUUAGCGAUAGCAUCACGGUAGAAGGCUCUACGGCUGG [Soteed Omei mod 20] (puzzle: Same State 2) |  |  |  | 10.7 nM | 18.6 nM | 26.2 nM
GUAGAUGUAGAGGAGGAUAUUCAAUGAGGAACAUGAGGAUCACCCAUGUAAGAGAGAGAUGAUAGGAAGAAGGCUUAGAGAGAUG [Altered State 2-5 - Jieux - Same State 2] (puzzle: Same State 2) |  |  |  | 24.2 nM | 31.7 nM | 43.1 nM
CCGAGUGGCGUACAGGAUAUGUUGCGUGGAACAUGAGGAUCACCCAUGUAUUUGCUCCUGCAUACGCAGAAGGGUGCGUCCUGGG [Estedibe] (Eterna round: R96, puzzle: Same State 2) | 16 nM | 24.1 nM | 29.3 nM |  |  | 
AGUGGACAUGAGGAUCACCCAUGUAUGCUGGCAUGAGGAUAUCCGAUUCGUUUCGACUAAGGAGAAGGCAUAGCCC [Geonla] (Eterna round: R96, puzzle: Same State 1) | 37 nM | 98.9 nM | 116 nM |  |  | 
AACAUUCUAUCUCAGGAUAUCAUGUCAAAGACAUGAGGAUCACCCAUGUACCAGGAAACUGGUUAUGAGAAGGGAGAUAGAAUGA [Mat - Same State 2 - Mod - D45] (puzzle: Same State 2) |  |  |  | 114 nM | 89.4 nM | 162 nM
GUUAGGAAUCUAGCCAACAUGAGGAUCACCCAUGUUAGUGGGAAGGAUAUGGUACAGAAACUGUACCAGAAGGUCUUAUUGUUU [Omei SS(NG) 3 AV10] (Eterna round: R96, puzzle: Same State NG 3) | 75.4 nM | 54.6 nM | 96.6 nM |  |  | 
GGAGCCAAGGCAGGAUAUUCAUAUUAUAAACAUGAGGAUCACCCAUGUAGGGCCAGAAGGCCUUGGGAGAAGGGCCAUGGCUCG [Xeonanis - 13 mod16] (Eterna round: R96, puzzle: Same State NG 2) | 20.2 nM | 53.8 nM | 71 nM |  |  | 
ACAUGAGAAAGAGGAUAUGUUGUACCUACAUGUGACAUGAGGAUCACCCAUGUGGUAAGUAUGAUACAGAAGGCUUAGAUAUGU [Equivalance 61 - Jieux - Same State NG 2] (Eterna round: R96, puzzle: Same State NG 2) | 15.1 nM | 17.8 nM | 25.6 nM |  |  | 
UGUUGUAUUACAGGAUAUCUAGUAUUUUUAUGUAGAGAAGGGUAUUCACAUGAGGAUCACCCAUGUAUAUACGAGGAAGUUGUG [JMF's solution 52] (Eterna round: R96, puzzle: Same State NG 1) |  | 28.9 nM |  |  |  | 
UUAAGCAACGGGCAGGAUAUGUAUUAAAAUACAUGAGGAUCACCCAUGUGCAGGUGUAACACCUGACAGAAGGGCCAAUCGCUGC [Soteed - 7] (puzzle: Same State 2) |  |  |  | 63.8 nM | 531 nM | 900 nM
AUUUUUAAUGCAGGAUAUGAUCAACAUGAGGAUCACCCAUGUGGUGUUGUGAGUAAGGAGAGUGAUCAGAAGGGCAUCUUUUCA [SS-NG2-LRO03] (Eterna round: R96, puzzle: Same State NG 2) | 1310 nM | 372 nM | 758 nM |  |  | 
